Source: paper PMC10138300, “Molecular Recognition of Methacryllysine and Crotonyllysine by the AF9 YEATS Domain” (International Journal of Molecular Sciences, 2023)
Starred links: 1 amine or outer side, 2 acyl side, 3 side chain; linkers in the order of their positions; H or OH if unused. Non-standard residues stand in square brackets, D forms with d. No end group written: not given here. Kmea = methacryllysine, C=C(C)C(=O)NCCCC[C@H](N[*:1])C(=O)[*:2]; Kcr = crotonyllysine, C/C=C/C(=O)NCCCC[C@H](N[*:1])C(=O)[*:2]

Assays:
[1] = target: T1, human AF9 YEATS domain (residues 1–138) (Homo sapiens, UniProt P42568); experiment: ITC binding assay with AF9 YEATS domain; settings: MicroCal PEAQ-ITC, 50 mM NaH2PO4, 500 mM NaCl, 2 mM EDTA, 2 mM β-ME, H3 peptides 1.1–2.7 mM titrated into AF9 YEATS 94–205 μM, One Set of Sites model, n = 3, errors as standard error (SE)
T1 construct: containing the cloned AF9 YEATS gene (amino acids 1–138) with an N-terminal 6xHis tag; 6xHis (N); made in house; host or cells: E. coli Rosetta 2(DE3)pLysS
T1 sequence (P42568 1-138): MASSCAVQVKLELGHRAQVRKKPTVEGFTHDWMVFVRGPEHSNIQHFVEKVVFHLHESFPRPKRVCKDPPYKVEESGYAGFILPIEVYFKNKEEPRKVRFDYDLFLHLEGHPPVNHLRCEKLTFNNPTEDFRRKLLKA
Experimental: The plasmid was transformed into Rosetta 2(DE3)pLysS E. coli cells (Novagen, Darmstadt, Germany) by the heat-shock method. Transformed cells were cultivated at 37 °C in TB medium supplemented with 50 μg/mL kanamycin and 35 μg/mL chloramphenicol. The cultivation continued until the culture’s OD600 reached 1.5. Then the culture was cooled down to room temperature (RT), and the protein expression was induced by adding isopropyl β-d-1-thiogalactopyranoside (IPTG) at a final concentration of 0.3 mM. The cultivation was continued for 18 h at RT. After the protein expression was completed, the cells were harvested by centrifuging the culture at 6500 rpm at 4 °C for 15 min. The pellets were then resuspended in cell lysis buffer containing 50 mM Tris, 500 mM NaCl, 30 mM imidazole, at pH 7.4, 1 mM phenylmethylsulfonyl fluoride (PMSF), 2 mM β-mercaptaethanol (β-ME), and 20 μg/mL DNase I. Subsequently, the cells were lysed using the One Shot Cell Disrupter (Constant Systems LTD, Daventry, UK), and the cell debris was settled down by centrifuging the lysate at 19500 rpm at 4 °C for 20 min. […]
ITC experiments were performed using a MicroCal PEAQ-ITC instrument (Malvern Panalytical, Malvern, UK). […] The concentrations of all histone peptides and proteins were measured by UV analysis on a Thermo-Fisher Nanodrop spectrophotometer in buffer using λmax at 215 nm and 280 nm, respectively. […]

[2] = target: T2, recombinant human AF9 YEATS domain (residues 1–138) (human, UniProt P42568 1-138); experiment: ITC; H3 peptides (1.1–2.7 mM) titrated into AF9 YEATS (94–205 μM), 19 injections; 50 mM NaH2PO4, 500 mM NaCl, 2 mM EDTA, 2 mM β-ME; One Set of Sites model; triplicates; settings: both partners purified
T2 construct: AF9 (MLLT3), human, YEATS domain, amino acids 1-138, in pET28b(+); Plasmid was a gift from Prof; No step that removes the tag is described; the final SEC product is called 6xHis AF9 YEATS, so the tag was probably still on in ITC; also called 6xHis-AF9 YEATS; source: E. coli Rosetta 2(DE3)pLysS, purified (HisTrap Ni-NTA, Superdex 75 SEC)
T2 sequence (looked up): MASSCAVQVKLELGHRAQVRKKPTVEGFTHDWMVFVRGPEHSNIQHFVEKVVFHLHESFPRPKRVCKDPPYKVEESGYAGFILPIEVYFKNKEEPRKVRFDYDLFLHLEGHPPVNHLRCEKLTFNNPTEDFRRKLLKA

Row | Molecule | N (Stoichiometry) [1] | Kd [2] [µM] | stoichiometry N [2]
1 | C/C=C/C(=O)NCCCC[C@H](NC(=O)[C@H](CCCNC(=N)N)NC(=O)[C@H](C)NC(=O)[C@@H](NC(=O)[C@H](CCC(N)=O)NC(=O)[C@H](CCCCN)NC(=O)[C@@H](N)[C@@H](C)O)[C@@H](C)O)C(=O)N[C@@H](CO)C(=O)N[C@H](C(=O)NCC(=O)NCC(=O)N[C@@H](CCCCN)C(=O)N[C@@H](C)C(N)=O)[C@@H](C)O [H3K9cr] | 0.98 ± 0.01 |  | 
2 | TKQTAR[Kmea]STGGKA-NH2 (histone H3, residues 3-15; the stretch is the same in H3.1, H3.2 and H3.3; Made on Rink amide resin, so the C-terminus is probably an amide; last residue coupled as N-alpha-Boc amino acid, so the N-terminus is probably free; source: synthetic peptide (Fmoc-SPPS on Rink amide resin, RP-HPLC purified)) [histone H3K9mea peptide (residues 3–15)] |  | 59 | 1.02
3 | STGGKAPRKQLATKAA (crotonyllysine (Kcr) at K18, histone H3, residues 10-25; the stretch is the same in H3.1, H3.2 and H3.3; Made on Rink amide resin, so the C-terminus is probably an amide; last residue coupled as N-alpha-Boc amino acid, so the N-terminus is probably free; also called H3K18Kcr; source: synthetic peptide (Fmoc-SPPS on Rink amide resin, RP-HPLC purified)) [histone H3K18cr peptide (residues 10–25)] |  | 21 | 
4 | STGGKAPRKQLATKAA (methacryllysine (Kmea) at K18, histone H3, residues 10-25; the stretch is the same in H3.1, H3.2 and H3.3; Made on Rink amide resin, so the C-terminus is probably an amide; last residue coupled as N-alpha-Boc amino acid, so the N-terminus is probably free; source: synthetic peptide (Fmoc-SPPS on Rink amide resin, RP-HPLC purified)) [histone H3K18mea peptide (residues 10–25)] |  | 114 | 
5 | TKQTAR[Kcr]STGGKA-NH2 (histone H3, residues 3-15; the stretch is the same in H3.1, H3.2 and H3.3; Made on Rink amide resin, so the C-terminus is probably an amide; last residue coupled as N-alpha-Boc amino acid, so the N-terminus is probably free; source: synthetic peptide (Fmoc-SPPS on Rink amide resin, RP-HPLC purified)) [histone H3K9cr peptide (residues 3–15)] |  | 11 | 0.98
